Measurements published in US10648014B2, “Degradation resistant peptide based biosensors” (Purdue Research Foundation, priority 2014, dated 2020).
Square brackets hold non-standard residues; d marks the D form. Ends that are not written are not given here. * marks the point of attachment. Biotin = O=C1N[C@H]2[C@H](CS[C@H]2CCCCC(=O)*)N1; photo‑cleavable linker = not defined here

Columns and labels:
[1] = test system: K562 chronic myelogenous leukemia (CML) cells; format: in vitro ADME, Human
Protocol: Biosensor Enrichment: K562 cells were incubated in lysis buffer for 20 minutes. Samples were spun down in 2500×g for 5 minutes at 4° C. Lysate was transferred to new Eppendorf tubes and treated with UV light (CL-1000 Ultraviolet Crosslinker (UVP, Upland, Calif., USA)) for 20 minutes to cleave the photo-cleavable linker. Photocleaved lysate samples were incubated with streptavidin coated agarose beads (Pierce) in 96 well polypropylene filter plate (PALL, Ann Arbor, Mich.) for 20 minutes at room temperature. Following incubation, the plate was spun down at 250×g for 30 seconds over a 96 well collection plate. The wells were washed 4 times with 200 uL of PBS and 2 times with MilliQ water, and spun down for 30 seconds at 250×g after each addition. Beads were resuspended in 15 μL of (75%/25%/0.1%:acetonitrile/water/TFA) elution buffer and shaken for 15 minutes at 600 rpm. Biosensor samples were spotted at 0.5 μL on a MALDI plate with 0.5 μL of matrix (10 mg/mL α-cyano-4-cinnamic acid and 10 mg/mL ammonium hydrogen phosphate, dissolved in 75%/25%/0.1% acetonitrile/water/TFA). Mass analysis was performed using an Applied Biosystems Voyager 4800 MALDI-TOF/TOF using linear positive mode.
Human K562 chronic myelogenous leukemia (CML) cells were exposed to either the control biosensor SEQ ID NO: 52 or the biosensor SEQ ID NO: 47 for 5 minutes as shown in FIGS. 8-13. […]

Abl kinase = assay: In vitro Abl kinase assay, phosphorylation detected by mass spectrometry; format: biochemical; conditions: for phosphorylation by Abl kinase: in vitro kinase assay, mass spectrometry, FIG. 2; for selectivity toward the Abl family of kinases: in vitro kinase assays Abl vs Lyn and Fyn
Protocol: (§1) In Vitro Abl Kinase Assay: The in vitro kinase assays were performed in triplicate in Dulbecco's Phosphate Buffered Saline without Calcium, Magnesium, or Phenol red in water bath maintained at 37° C. The total volume of the assay was 200 uL, and contained 1 mM ATP, 10 mM MgCl2, 5-25 uM of the biosensor, and 6 nM of Arg or Lyn Kinase final concentrations. Initiation of the assay was the addition of 1 uL of Arg Kinase to the reaction mix and heated at 37° C. Aliquots of 20 uL were collected at intervals described over a total run time of up to 60 minutes.
Referring now to FIG. 2, to evaluate the importance of the SH3 targeting sequence, we performed in vitro kinase assays comparing the peptides using the Abl kinase. Phosphorylation was detected using mass spectrometry.

Lyn kinase = Lyn kinase (Homo sapiens, UniProt P07948); assay: In vitro kinase assay against Lyn kinase; format: biochemical; conditions: FIG. 2
Protocol: as §1
(§2) In order to assess the selectivity of the biosensor SEQ ID NO: 47, we tested against Lyn and Fyn kinases using the in vitro kinase assay.

Fyn kinase = Fyn kinase (Homo sapiens, UniProt P06241); assay: In vitro kinase assay against Fyn kinase; format: biochemical; conditions: FIG. 2
Protocol: as §1, §2

K562 cells = format: cell-based, Human
Protocol: Flow Cytometry: K562 cells (about 1×10^6 cells/mL) were incubated for 30 minutes with FITC labeled biosensors at various concentrations, 1-50 μM. Cells were centrifuged at about 2500 rpm for about 5 minutes at 4° C. Media was aspirated and cells were washed 3 times with fresh media. A FC500 flow cytometer (Beckman Coulter) was used to analyze 50 μL aliquots of suspended cells.
Flow cytometry was used to verify the uptake of the biosensor SEQ ID NO:47 by K562 cells. We conjugated a FITC fluorophore to the cysteine residue of the biosensor by maleimide reaction.

Bcr-Abl kinase = target: T1, Bcr-Abl kinase (Homo sapiens, UniProt P00519); assay: K562 cell kinase assay, intracellular phosphorylation of biosensor; format: cell-based; conditions: K562 cells, 60 minutes incubation, FIG. 6
T1 construct: endogenous in cells; host or cells: K562; the other entry of the earlier key: BCR (P11274, Breakpoint cluster region protein)

[2] = biosensor incubated with Abl kinase, Michaelis Menten, FIG. 3

T1 sequence (P00519 with tags, fused parts or gaps): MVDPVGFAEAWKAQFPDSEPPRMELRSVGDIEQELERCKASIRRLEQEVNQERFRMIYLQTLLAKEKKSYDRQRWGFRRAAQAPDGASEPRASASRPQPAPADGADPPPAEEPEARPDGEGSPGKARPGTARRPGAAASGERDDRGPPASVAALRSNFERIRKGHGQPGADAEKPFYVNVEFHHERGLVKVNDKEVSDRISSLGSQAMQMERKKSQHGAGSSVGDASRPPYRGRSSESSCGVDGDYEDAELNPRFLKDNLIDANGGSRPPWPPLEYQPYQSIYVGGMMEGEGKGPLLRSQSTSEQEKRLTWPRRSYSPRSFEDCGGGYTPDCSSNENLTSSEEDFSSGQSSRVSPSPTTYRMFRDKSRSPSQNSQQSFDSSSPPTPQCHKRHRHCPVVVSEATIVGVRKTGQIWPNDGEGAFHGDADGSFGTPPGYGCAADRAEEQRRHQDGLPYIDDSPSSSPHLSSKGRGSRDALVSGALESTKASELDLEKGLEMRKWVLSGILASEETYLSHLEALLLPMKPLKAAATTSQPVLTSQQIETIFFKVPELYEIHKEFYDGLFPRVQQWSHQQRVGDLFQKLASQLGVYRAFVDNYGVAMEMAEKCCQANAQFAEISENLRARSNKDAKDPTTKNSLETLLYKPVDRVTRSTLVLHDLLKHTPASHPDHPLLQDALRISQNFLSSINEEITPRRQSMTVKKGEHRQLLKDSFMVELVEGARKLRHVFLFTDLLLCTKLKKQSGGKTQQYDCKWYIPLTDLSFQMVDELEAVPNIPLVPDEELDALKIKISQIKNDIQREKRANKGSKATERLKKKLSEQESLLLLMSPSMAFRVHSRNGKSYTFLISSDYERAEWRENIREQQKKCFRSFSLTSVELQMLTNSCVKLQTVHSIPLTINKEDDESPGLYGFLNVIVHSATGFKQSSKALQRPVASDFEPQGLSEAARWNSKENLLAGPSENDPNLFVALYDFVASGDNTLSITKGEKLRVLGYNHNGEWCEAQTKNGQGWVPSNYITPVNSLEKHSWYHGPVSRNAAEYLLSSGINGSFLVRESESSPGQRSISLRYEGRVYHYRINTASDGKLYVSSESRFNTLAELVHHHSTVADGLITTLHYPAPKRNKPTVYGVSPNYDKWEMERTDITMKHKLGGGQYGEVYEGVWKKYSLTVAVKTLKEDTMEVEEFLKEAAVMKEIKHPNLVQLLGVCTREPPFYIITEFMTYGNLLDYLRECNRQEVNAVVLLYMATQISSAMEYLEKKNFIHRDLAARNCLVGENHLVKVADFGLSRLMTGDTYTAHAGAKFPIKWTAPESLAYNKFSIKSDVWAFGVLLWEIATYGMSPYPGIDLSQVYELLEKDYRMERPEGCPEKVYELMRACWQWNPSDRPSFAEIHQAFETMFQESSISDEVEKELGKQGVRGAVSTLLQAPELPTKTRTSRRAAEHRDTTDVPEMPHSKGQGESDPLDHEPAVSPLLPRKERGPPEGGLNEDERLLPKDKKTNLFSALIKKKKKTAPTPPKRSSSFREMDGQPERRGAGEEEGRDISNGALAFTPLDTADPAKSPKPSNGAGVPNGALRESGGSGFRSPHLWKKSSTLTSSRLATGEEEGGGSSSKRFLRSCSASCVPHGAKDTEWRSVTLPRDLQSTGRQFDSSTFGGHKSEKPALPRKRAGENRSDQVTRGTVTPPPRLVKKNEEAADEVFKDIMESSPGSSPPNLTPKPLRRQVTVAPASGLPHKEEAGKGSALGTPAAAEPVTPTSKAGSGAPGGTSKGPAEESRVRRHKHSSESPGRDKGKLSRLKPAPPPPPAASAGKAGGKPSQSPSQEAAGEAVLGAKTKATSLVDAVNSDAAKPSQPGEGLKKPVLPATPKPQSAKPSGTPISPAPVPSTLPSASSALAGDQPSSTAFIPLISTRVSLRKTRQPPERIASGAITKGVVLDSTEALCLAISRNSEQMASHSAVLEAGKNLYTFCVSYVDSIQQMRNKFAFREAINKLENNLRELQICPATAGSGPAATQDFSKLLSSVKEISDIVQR
Chain of Fyn kinase (P06241 whole entry): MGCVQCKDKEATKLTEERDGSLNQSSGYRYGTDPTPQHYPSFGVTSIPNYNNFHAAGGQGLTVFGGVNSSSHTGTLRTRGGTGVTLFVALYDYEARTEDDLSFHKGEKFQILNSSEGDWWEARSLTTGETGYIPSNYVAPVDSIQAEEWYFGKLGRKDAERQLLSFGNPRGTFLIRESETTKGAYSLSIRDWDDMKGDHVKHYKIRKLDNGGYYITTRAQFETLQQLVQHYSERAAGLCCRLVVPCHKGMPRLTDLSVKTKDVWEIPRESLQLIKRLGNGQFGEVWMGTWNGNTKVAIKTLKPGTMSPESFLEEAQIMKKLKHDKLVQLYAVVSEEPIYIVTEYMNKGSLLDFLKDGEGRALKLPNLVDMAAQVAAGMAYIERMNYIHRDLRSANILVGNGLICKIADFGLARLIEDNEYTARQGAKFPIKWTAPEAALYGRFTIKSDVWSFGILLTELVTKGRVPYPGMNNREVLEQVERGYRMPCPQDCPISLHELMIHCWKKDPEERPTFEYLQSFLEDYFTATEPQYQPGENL
Chain of Lyn kinase (P07948 whole entry): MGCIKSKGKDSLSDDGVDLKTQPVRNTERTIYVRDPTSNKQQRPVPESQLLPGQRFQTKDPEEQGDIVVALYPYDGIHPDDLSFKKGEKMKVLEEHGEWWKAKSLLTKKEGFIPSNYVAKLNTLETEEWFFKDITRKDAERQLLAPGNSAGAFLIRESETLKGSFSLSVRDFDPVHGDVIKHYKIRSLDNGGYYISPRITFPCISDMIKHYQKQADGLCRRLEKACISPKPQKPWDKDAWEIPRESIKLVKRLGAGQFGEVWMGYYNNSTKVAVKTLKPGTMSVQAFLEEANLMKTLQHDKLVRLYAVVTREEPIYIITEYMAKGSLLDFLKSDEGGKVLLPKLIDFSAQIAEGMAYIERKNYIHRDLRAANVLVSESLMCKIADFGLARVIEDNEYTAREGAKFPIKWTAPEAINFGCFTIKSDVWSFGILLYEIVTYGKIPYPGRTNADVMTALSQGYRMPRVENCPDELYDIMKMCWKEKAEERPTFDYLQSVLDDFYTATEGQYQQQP

EAIYAAFAKKG-Kbiotin-photo-cleavable linker-GCGAPTYSPPPPPGGRKKRRQRRR (EAIYAAFAKKGK(Biotin)[photo‑cleavable linker]GCGAPTYSPPPPPGGRKKRRQRRR; reading uncertain) [SEQ ID NO: 52, reference compound]
degradation after exposure to K562 cells [1]: almost completely degraded

KbiotinkkafpaayiaeG-photo-cleavable linker-GCGAPTYSPPPPPGGrrrqrrkkr (K(Biotin)[dK][dK][dA][dF][dP][dA][dA][dY][dI][dA][dE]G[photo‑cleavable linker]GCGAPTYSPPPPPGG[dR][dR][dR][dQ][dR][dR][dK][dK][dR]; reading uncertain) [SEQ ID NO:47]
Km (Abl kinase; [2]): 7.5 µM | Vmax (Abl kinase; [2]): 849.5 pmol/mg/min | phosphorylation by Abl kinase (Abl kinase): phosphorylated with reasonable efficiency | selectivity toward the Abl family of kinases (Abl kinase): relatively selective toward the Abl family of kinases | phosphorylation by Lyn kinase (Lyn kinase): did not phosphorylate | selectivity for Abl over Lyn or Fyn kinases (Fyn kinase): selective for Abl over Lyn or Fyn kinases | uptake by K562 cells (K562 cells): confirmed the uptake | intracellular phosphorylation of the biosensor (Bcr-Abl kinase): observed | degradation after exposure to K562 cells [1]: essentially intact

KbiotinkkafpaayiaeG-photo-cleavable linker-GCGGrrrqrrkkr (K(Biotin)[dK][dK][dA][dF][dP][dA][dA][dY][dI][dA][dE]G[photo‑cleavable linker]GCGG[dR][dR][dR][dQ][dR][dR][dK][dK][dR]; reading uncertain) [SEQ ID NO: 53]
phosphorylation by Abl kinase (Abl kinase): not appreciably phosphorylated | selectivity toward the Abl family of kinases (Abl kinase): relatively selective toward the Abl family of kinases
